Where two headings read alike, the source gives them in different places.
Columns and labels:
[1] = target: recombinant murine PrP 23–231 (murine) (UniProt P04925); assay: ELISA
[2] = target: recombinant murine PrP 23–231 (murine) (UniProt P04925); assay: ELISA; remark: listed apart in the source

Chain of UniProt P04925 (P04925 23-231): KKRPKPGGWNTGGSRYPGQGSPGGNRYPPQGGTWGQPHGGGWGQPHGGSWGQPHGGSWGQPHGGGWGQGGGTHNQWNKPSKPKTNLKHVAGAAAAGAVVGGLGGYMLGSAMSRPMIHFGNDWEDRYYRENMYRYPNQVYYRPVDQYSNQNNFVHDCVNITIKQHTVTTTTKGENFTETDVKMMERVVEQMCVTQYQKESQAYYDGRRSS

Row | Substance | EC50 [1] [nM] | EC50 [2] [nM]
1 | Aβ-derived diffusible ligands (ADDLs), a preparation of Aβ1–42 (peptide) | 234 | 113
2 | Aβ1–42 fibrils (peptide) | 1730 | –
